{"source": "patent US20240009137A1", "about": "“ORAL THERAPEUTIC DELIVERY” (ROYAL MELBOURNE INSTITUTE OF TECHNOLOGY, priority 2020, published 2024)", "key": {"[1]": {"settings": "previously provided in the literature; cited from earlier work"}, "[2]": {"biological_target": "T1, chymotrypsin (Bos taurus, UniProt P00766)", "T1 construct": "purchased Sigma Aldrich (Australia)", "experiment": "Enzymatic degradation of insulin by chymotrypsin followed by synchrotron CD (Dichroweb)", "assay_type": "in vitro ADME", "description": "SR-CD measurements were conducted in the 170-350 nm region using the CD beamline of the synchrotron radiation source ASTRID2 at ISA, Centre for Storage Ring Facilities at Aarhus University (Denmark). Suprasil Quartz cells (Hellma GmbH & Co., Germany) of nominal 0.1 mm path length (actual calibrated path lengths=102.3 and […]), requiring an approximately 30 μl sample volume, were used for measurements at 37° C. in a temperature-regulated sample holder. […] The sample measurements were obtained at 1 nm increments in wavelength, 1 sec averaging time and 1 scan for each sample. Data were mildly smoothed with a 5-point moving mean in Matlab. The online service DichroWeb was used for secondary structure content analysis of the CD spectra using the CONTIN routine and the SP175 reference set.\nChymotrypsin, which is typically found in the small intestine, was utilized as a model enzyme."}, "[3]": {"experiment": "Release of insulin from bulk cubic phase (A280 of supernatant; Ritger-Peppas and Higuchi fits)", "assay_type": "physicochemical", "description": "This mixture was then injected into a 1.5 mL Eppendorf tube and centrifuged at 1200 RPM for 1 min to achieve a flat surface. The height of this surface was measured to determine the diameter for subsequent surface area calculations. 150 μl of water was added on top of the cubic phase and immediately removed for T=0 time point. 150 μl of supernatant fluid was removed every 30 min over a 12 hour period for analysis and replaced with a further […] of water. A final reading was taken at 22 hour.\nMt, M0, k and n are the released quantity at time t, initial quantity encapsulated, fitting coefficient and fitting exponent, respectively. This allows for the coupling of multiple release mechanisms (e.g., diffusion-controlled, zero-order) where the diffusional exponent n, is indicative of the release mechanism and geometry of the interface and the fitting coefficient k reflects characteristics of both the matrix and the solute.\nwhere Q, C0 and D are the released concentration per unit area, initial concentration per unit volume and the diffusion coefficient, respectively. Diffusion control dictates that the release profile against √t should be linear. […] The determined parameters were compared to those found during FRAP analysis (DFRAP)."}, "[4]": {"experiment": "Fluorescence recovery after photobleaching (FRAP), diffusion coefficient", "assay_type": "physicochemical", "description": "FRAP was performed on a Nikon confocal microscope. […] A bleaching and background region of interest (ROI) was used to selectively photobleach an area of the cubic phase and the fluorescence recovery curve was recorded with time. The excitation/emission wavelengths used were 553/627 nm for the octadecyl rhodamine B chloride. […] […] The open source Matlab code frap_analysis_2p5 was used to determine diffusion coefficients μ from FRAP data."}, "[5]": {"settings": "insulin in water 0.2 mg/ml, chymotrypsin 0.02 mg/ml, time 0 min"}, "[6]": {"settings": "insulin in water 0.2 mg/ml, chymotrypsin 0.02 mg/ml, time 2 min"}, "[7]": {"settings": "insulin in water 0.2 mg/ml, chymotrypsin 0.02 mg/ml, time 12 min"}}, "note": "Several values for one entry are separate records, joined by “and”; a condition that tells them apart may be missing. Equal entries are not always repeated.", "data": [{"substance": "Insulin: human recombinant insulin (Sigma Aldrich); FITC labelled insulin used for FRAP; free or encapsulated in MO or PT cubic phase", "values": [{"measurement": "diffusion coefficient in water", "setting": "[1]", "value": "1.5 ×10^−6 cm^2 s^−1"}, {"measurement": "far UV CD spectrum, secondary structure", "setting": "[2]; insulin 0.2 mg/ml encapsulated in PT cubic phase, 30 min after addition of chymotrypsin", "value": "still largely a-helical"}, {"measurement": "far UV CD spectrum, secondary structure", "setting": "[2]; insulin 0.2 mg/ml in water, 30 min after addition of chymotrypsin", "value": "largely unordered"}, {"measurement": "near-UV CD minimum at 270 nm", "setting": "[2]; insulin 0.5 mg/ml in MO bulk cubic phase, 132 min after addition of chymotrypsin 0.05 mg/ml", "value": "may still be observed"}, {"measurement": "far UV CD spectrum, secondary structure", "setting": "[2]; insulin encapsulated in PT cubic phase, 2 hours after addition of chymotrypsin", "value": "retention of a-helical structures"}, {"measurement": "duration of protection against enzymatic degradation after addition of chymotrypsin", "setting": "[2]; insulin in lipid nanocarrier in the form of a mesophase", "value": "at least 2 hours"}, {"measurement": "time by which the near-UV CD minimum at 270 nm has essentially disappeared", "setting": "[2]; insulin in solution 0.5 mg/ml, chymotrypsin 0.05 mg/ml", "value": "≤ 9", "unit": "min"}, {"measurement": "Unordered(%)", "setting": "[2]; [5]", "value": 8, "unit": "%"}, {"measurement": "β-sheet(%)", "setting": "[2]; [5]", "value": 0, "unit": "%"}, {"measurement": "β-turns(%)", "setting": "[2]; [5]", "value": 3, "unit": "%"}, {"measurement": "β-sheet(%)", "setting": "[2]; [6]", "value": 0, "unit": "%"}, {"measurement": "β-turns(%)", "setting": "[2]; [6]", "value": 9, "unit": "%"}, {"measurement": "β-sheet(%)", "setting": "[2]; insulin in water 0.2 mg/ml, chymotrypsin 0.02 mg/ml, time 6 min", "value": 2, "unit": "%"}, {"measurement": "Unordered(%)", "setting": "[2]; [7]", "value": 41, "unit": "%"}, {"measurement": "α-helix(%)", "setting": "[2]; [7]", "value": "41% and 41.2%"}, {"measurement": "time to complete degradation", "setting": "[2]; insulin in water, no protective matrix, chymotrypsin added", "value": "less than 35 min"}, {"measurement": "insulin released over the first two hours", "setting": "[3]; from MO bulk cubic phase", "value": "approximately 15%"}, {"measurement": "release over a 24 h period", "setting": "[3]; from MO bulk cubic phase", "value": "approximately 50%"}, {"measurement": "insulin released over the first two hours", "setting": "[3]; from PT bulk cubic phase", "value": "approximately 25%"}, {"measurement": "release over a 24 h period", "setting": "[3]; from PT bulk cubic phase", "value": 60, "unit": "%"}, {"measurement": "insulin released over 2-hour time period", "setting": "[3]; from the cubic phase (lipid not specified)", "value": "approximately 20%"}, {"measurement": "k, fitting coefficient (Ritger-Peppas model)", "setting": "[3]; insulin release from MO", "value": "0.88 ± 0.06"}, {"measurement": "time to 20% release", "setting": "[3]; release from MO bulk cubic phase into aqueous sink", "value": "~4", "unit": "h"}, {"measurement": "time to 20% release", "setting": "[3]; release from PT bulk cubic phase into aqueous sink", "value": "~2", "unit": "h"}, {"measurement": "Diffusion Coefficient", "setting": "[4]; MO QII^D phase at the water interface (DFRAP)", "value": "2.89 ×10^−6 cm^2 s^−1"}, {"measurement": "Diffusion Coefficient", "setting": "[4]; PT QII^D phase at the water interface (DFRAP)", "value": "4.36 ×10^−6 cm^2 s^−1"}, {"measurement": "Diffusion Coefficient", "setting": "[4]; in MO QII^D bulk cubic phase (insulin: FITC labelled, 5 mg/ml)", "value": "2.29 ×10^−6 cm^2 s^−1"}, {"measurement": "Diffusion Coefficient", "setting": "[4]; in PT QII^D bulk cubic phase (insulin: FITC labelled, 5 mg/ml)", "value": "4.17 ×10^−6 cm^2 s^−1"}, {"measurement": "Diffusion Coefficient", "setting": "[4]; in solution (free, FITC labelled insulin)", "value": "6.56 ×10^−6 cm^2 s^−1"}, {"measurement": "Diffusion Coefficient", "setting": "[4]; in solution (free, FITC labelled insulin), listed as insulin", "value": "6.6 ×10^−6 cm^2 s^−1"}, {"measurement": "diffusion coefficient higher at the interface compared to in the bulk", "setting": "[4]; stated for both lipids (MO and PT)", "value": "approximately 15%"}]}]}
